# Measured values as given in US20080058636A1, “METHODS OF MYOCARDIAL IMAGING” (Epix Pharmaceuticals, Inc., priority 2005, published 2008).
# Bridge positions count the residues as written; N and C are the ends. Square brackets hold non-standard residues; d marks the D form. Ends that are not written are not given here. Cha = N[C@@H](CC1CCCCC1)C(=O)O
# B1: Compound ID 921 (peptide)
# chain: GQWHCTYLFPHHYCLYG
# B2: Compound ID 876 (peptide)
# chain: GQWACTTRFPHHYCLYG
# B3: Compound ID 923 (peptide)
# chain: GQWHCTTLFPNHYCLYG
# B4: Compound ID 900 (peptide)
# chain: GQWHCTRRFPHHYCLYG
# B5: Compound ID 910 (peptide)
# chain: GDWHCTTLFPHHYCLYG
# B6: Compound ID 899 (peptide)
# chain: GQWHCTYRFPHHYCLYG
# B7: Compound ID 902 (peptide)
# chain: GQWHCTTRFPHHRCLYG
# B8: Compound ID 859 (peptide)
# chain: GQWHCTTRYPHHYCLYG
# B9: Compound ID 878 (peptide)
# chain: GQWHCTTRFPHAYCLYG
# B10: Compound ID 854 (peptide)
# chain: PPQWHCTTRFPHHYCLYG
# B11: Compound ID 938 (peptide)
# chain: GQWHCTTRFAHHYCLYG
# B12: Compound ID 945 (peptide)
# chain: GKWHCYTYFPHHYCVYY
# B13: Compound ID 857 (peptide)
# chain: GAWHCTTRFPHHYCLYG
# B14: Compound ID 918 (peptide)
# chain: GQWHCTT[Cha]FPHHYCLYG
# modifications: disulfide 5-14 (inferred)
# B15: Compound ID 905 (peptide)
# chain: GQWHCTTRFPHHTCLYG
# B16: Compound ID 890 (peptide)
# chain: GQWHCTTDFPHHYCLFG
# B17: Compound ID 898 (peptide)
# chain: GQWHCTSRFPHHYCLYG
# B18: Compound ID 911 (peptide)
# chain: GSWHCTTLFPHHYCLYG
# B19: Compound ID 853 (peptide)
# chain: GQWHCTTAFPHHYCLYG
# B20: Compound ID 922 (peptide)
# chain: GQWNCTTLFPHHYCLYG
# B21: Compound ID 915 (peptide)
# chain: GAWHCTTYFPHHYCLYG
# B22: Compound ID 870 (peptide)
# chain: GQWSCTTRFPHHYCLYG
# B23: Compound ID 928 (peptide)
# chain: GQWHCTTLFPHHYCVYG
# B24: Compound ID 936 (peptide)
# chain: GQWHCTDRFPHHYCLYG
# B25: Compound ID 940 (peptide)
# chain: GQWHCTKRFPHHYCLYG
# B26: Compound ID 865 (peptide)
# chain: GQWHCTTRFPAHYCLYG
# B27: Compound ID 909 (peptide)
# chain: AWHCTTLFPHHYCLYG
# B28: Compound ID 930 (peptide)
# chain: GKWHCTTLFPHHYCLYG
# B29: Compound ID 931 (peptide)
# chain: GQWHCTTRFPHHYCFYG
# B30: Compound ID 855 (peptide)
# chain: GQWHCTTRFPHHYCAYG
# B31: Compound ID 929 (peptide)
# chain: GQWHCTTFFPHHYCLYG
# B32: Compound ID 912 (peptide)
# chain: PPWHCTTLFPHHYCLYG
# B33: Compound ID 895 (peptide)
# chain: GQWHCTTDYPHHYCLYG
# B34: Compound ID 908 (peptide)
# chain: GAWHCTTLFPHHYCLYG
# B35: Compound ID 877 (peptide)
# chain: GQWHCATRFPHHYCLYG
# B36: Compound ID 897 (peptide)
# chain: GQWHCTNRFPHHYCLYG
# B37: Compound ID 917 (peptide)
# chain: GQWHCTTIFPHHYCLYG
# B38: Compound ID 924 (peptide)
# chain: GQWHCTTLFPHNYCLYG
# B39: Compound ID 937 (peptide)
# chain: AWHCTTRFPAHYCLYG
# B40: Compound ID 927 (peptide)
# chain: GQWHCTTLFPHHYCIYG
# B41: Compound ID 946 (peptide)
# chain: GKWHCTTYFPYHYCLYG
# B42: Compound ID 942 (peptide)
# chain: GKWHCTTYFPHHYCVYG
# B43: Compound ID 880 (peptide)
# chain: GQWHCTTRFPSHYCLYG
# Biological target: human collagen type I (acid soluble, extracted from placenta, Sigma C7774) (human) (UniProt P02452)
# Sequence (P02452 162-1218 limits assumed, chain 1 of 2): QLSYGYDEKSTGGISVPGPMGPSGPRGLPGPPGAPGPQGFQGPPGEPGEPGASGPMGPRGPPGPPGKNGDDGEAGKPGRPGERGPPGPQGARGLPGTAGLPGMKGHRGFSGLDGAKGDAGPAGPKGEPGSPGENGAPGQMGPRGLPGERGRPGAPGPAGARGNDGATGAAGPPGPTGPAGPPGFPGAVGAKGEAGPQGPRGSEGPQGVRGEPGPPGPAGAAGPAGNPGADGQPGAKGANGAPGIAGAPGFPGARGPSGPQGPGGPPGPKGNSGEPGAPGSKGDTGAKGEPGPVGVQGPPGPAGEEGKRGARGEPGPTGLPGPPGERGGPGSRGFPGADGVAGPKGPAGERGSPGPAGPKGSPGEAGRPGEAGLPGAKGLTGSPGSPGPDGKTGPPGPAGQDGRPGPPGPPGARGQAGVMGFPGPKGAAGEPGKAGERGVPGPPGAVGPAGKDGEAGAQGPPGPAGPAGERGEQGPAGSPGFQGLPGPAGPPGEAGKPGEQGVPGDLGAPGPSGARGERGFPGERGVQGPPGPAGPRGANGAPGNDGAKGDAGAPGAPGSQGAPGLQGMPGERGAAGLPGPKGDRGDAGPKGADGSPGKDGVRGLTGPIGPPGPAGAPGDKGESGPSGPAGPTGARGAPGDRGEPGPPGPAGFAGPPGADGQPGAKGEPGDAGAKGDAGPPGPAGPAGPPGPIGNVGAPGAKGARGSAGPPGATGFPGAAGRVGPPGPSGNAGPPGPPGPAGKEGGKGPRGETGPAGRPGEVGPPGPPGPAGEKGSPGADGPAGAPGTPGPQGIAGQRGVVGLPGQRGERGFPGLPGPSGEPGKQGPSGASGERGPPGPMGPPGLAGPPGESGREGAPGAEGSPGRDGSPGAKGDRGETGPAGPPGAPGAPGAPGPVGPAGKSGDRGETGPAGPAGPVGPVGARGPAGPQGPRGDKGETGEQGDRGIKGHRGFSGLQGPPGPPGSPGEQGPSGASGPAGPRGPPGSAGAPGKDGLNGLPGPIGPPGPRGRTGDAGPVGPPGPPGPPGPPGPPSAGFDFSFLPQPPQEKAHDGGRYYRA
# Sequence (P08123 80-1119 limits assumed, chain 2 of 2, further chain): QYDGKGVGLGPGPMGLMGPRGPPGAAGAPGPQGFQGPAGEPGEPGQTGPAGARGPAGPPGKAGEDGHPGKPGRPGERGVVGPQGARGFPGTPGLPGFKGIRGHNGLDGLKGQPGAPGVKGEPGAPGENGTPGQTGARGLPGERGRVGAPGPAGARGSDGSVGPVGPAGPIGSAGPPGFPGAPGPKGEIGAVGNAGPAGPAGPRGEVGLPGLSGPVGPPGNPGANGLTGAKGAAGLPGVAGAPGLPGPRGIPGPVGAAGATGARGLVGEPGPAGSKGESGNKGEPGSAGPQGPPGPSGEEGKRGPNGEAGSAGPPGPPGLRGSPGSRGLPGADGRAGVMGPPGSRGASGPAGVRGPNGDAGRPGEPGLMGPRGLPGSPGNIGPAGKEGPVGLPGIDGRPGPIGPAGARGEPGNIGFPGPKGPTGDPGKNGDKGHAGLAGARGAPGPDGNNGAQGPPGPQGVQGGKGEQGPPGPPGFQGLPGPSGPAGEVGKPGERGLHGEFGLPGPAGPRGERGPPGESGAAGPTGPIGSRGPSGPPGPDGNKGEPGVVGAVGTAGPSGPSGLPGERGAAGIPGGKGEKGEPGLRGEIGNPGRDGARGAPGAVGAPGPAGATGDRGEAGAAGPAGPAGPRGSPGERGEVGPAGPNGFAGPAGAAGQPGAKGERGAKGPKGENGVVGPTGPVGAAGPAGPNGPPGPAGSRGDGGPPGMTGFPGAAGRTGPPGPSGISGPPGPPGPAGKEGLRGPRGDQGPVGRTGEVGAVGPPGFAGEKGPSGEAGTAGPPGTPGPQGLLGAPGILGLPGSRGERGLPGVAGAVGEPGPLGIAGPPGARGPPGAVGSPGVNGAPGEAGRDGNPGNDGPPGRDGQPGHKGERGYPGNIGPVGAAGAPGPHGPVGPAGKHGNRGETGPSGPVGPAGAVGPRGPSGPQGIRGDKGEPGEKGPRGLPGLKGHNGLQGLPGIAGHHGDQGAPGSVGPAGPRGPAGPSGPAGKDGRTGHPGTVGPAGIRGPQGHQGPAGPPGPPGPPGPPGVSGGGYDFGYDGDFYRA
# Assay: dried collagen assay, 5 uM each
row,Binder,Human binding [%]
1,B1,68
2,B2,48
3,B3,28
4,B4,4
5,B5,13
6,B6,20
7,B7,7
8,B8,47
9,B9,8
10,B10,64
11,B11,16
12,B12,83
13,B13,67
14,B14,19
15,B15,6
16,B16,38
17,B17,5
18,B18,15
19,B19,66
20,B20,68
21,B21,15
22,B22,30

row,Binder,Human binding [%]
1,B23,73
2,B24,9
3,B25,9
4,B26,30
5,B27,14
6,B28,31
7,B29,70
8,B30,27
9,B31,27
10,B32,20
11,B33,7
12,B34,20
13,B35,58
14,B36,4
15,B37,12
16,B38,24
17,B39,11
18,B40,64
19,B41,71
20,B42,78
21,B43,30

# Biological target: rat collagen (acid soluble, type I, rat tail, Upstate 08-115) (rat) (UniProt P02454)
# Sequence (P02454 152-1207, chain 1 of 2): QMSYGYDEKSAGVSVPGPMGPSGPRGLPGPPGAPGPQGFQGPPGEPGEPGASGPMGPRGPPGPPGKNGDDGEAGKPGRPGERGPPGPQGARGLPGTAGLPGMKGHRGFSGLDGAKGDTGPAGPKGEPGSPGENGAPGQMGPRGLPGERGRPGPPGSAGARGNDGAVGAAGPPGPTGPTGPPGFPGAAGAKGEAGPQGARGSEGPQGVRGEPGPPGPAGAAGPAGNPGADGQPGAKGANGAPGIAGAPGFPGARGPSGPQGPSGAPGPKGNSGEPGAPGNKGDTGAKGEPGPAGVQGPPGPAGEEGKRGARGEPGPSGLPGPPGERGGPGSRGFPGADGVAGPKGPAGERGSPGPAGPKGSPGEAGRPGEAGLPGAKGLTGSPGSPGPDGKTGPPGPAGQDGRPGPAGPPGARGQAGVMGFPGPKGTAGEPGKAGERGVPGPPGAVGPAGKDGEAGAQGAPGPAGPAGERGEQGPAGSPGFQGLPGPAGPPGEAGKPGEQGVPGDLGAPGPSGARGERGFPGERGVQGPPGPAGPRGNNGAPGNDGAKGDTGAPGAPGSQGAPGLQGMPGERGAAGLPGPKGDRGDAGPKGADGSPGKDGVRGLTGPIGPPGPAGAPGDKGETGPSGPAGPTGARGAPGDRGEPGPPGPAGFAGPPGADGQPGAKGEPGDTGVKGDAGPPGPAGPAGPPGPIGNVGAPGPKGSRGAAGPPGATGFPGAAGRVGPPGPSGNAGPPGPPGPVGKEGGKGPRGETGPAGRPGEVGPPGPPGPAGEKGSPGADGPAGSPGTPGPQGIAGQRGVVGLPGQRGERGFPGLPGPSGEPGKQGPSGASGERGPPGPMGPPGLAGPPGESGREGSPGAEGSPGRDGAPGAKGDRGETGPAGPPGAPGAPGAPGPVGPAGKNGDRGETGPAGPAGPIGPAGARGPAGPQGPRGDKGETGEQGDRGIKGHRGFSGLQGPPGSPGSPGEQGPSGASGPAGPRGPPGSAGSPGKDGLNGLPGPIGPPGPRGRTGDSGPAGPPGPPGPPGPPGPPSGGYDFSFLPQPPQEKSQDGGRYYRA
# Sequence (P02466 86-1125, chain 2 of 2, further chain): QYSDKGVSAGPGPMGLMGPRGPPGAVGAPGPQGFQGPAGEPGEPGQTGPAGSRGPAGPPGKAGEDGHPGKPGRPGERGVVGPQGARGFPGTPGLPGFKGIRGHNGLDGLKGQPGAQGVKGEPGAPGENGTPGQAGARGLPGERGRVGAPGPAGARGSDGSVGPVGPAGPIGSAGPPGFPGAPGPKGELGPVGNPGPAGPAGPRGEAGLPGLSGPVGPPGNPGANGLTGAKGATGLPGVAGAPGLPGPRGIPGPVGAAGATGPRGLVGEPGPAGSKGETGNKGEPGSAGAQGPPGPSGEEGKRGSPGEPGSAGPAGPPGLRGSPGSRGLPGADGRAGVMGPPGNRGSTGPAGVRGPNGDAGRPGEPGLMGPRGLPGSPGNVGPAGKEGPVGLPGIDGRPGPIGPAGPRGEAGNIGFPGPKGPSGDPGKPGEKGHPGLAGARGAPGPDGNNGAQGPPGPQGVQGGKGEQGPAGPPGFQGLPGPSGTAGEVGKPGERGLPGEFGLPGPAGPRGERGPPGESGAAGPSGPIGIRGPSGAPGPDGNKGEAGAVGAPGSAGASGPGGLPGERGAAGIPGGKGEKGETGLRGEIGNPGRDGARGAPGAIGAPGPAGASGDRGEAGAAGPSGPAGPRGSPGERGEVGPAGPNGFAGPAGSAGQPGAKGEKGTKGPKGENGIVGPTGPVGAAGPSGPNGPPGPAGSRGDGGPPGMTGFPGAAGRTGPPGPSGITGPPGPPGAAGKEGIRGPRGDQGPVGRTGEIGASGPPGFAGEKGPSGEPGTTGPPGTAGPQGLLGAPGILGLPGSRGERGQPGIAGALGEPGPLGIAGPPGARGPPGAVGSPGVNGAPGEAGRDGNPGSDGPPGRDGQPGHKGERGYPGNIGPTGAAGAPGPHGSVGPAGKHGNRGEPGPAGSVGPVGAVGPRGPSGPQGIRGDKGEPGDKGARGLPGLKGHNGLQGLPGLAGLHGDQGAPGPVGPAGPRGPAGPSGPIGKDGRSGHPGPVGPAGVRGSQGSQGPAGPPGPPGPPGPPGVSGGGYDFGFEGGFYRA
# Assay: dried collagen assay, 5 uM each
row,Binder,Rat binding [%]
1,B1,35
2,B2,26
3,B3,10
4,B4,1
5,B5,0
6,B6,14
7,B7,2
8,B8,38
9,B9,9
10,B10,56
11,B11,13
12,B12,82
13,B13,69
14,B14,0
15,B15,2
16,B16,15
17,B17,3
18,B18,0
19,B19,57
20,B20,58
21,B21,0
22,B22,28

row,Binder,Rat binding [%]
1,B23,80
2,B24,5
3,B25,8
4,B26,17
5,B27,0
6,B28,42
7,B29,83
8,B30,15
9,B31,34
10,B32,0
11,B33,0
12,B34,0
13,B35,41
14,B36,1
15,B37,0
16,B38,1
17,B39,14
18,B40,63
19,B41,68
20,B42,67
21,B43,0
